Assay results from patent US20220204643A1 (published 2022).
Like-named read-outs stand apart in the source and are kept apart here. One block for each binder: values may come before it.

Columns and labels:
[1] = molecular target: T1, endosome associated trafficking regulator 1, transcript variant 2 (human, UniProt Q96C92 59-435); test: protein array
T1 construct: on protein array; also called SDCCAG3
T1 chain: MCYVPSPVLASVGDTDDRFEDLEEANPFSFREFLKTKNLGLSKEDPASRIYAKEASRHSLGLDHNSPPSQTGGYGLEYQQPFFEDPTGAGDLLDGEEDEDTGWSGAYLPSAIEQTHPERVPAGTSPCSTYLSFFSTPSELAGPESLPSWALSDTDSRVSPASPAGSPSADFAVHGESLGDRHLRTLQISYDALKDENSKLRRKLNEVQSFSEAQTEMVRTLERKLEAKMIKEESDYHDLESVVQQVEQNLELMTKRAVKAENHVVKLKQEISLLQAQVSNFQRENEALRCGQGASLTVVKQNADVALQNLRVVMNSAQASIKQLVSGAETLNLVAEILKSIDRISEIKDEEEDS

[2] = molecular target: T2, endosome associated trafficking regulator 1, transcript variant 2 (human, UniProt Q96C92 59-435)
T2 construct: HuProt array protein, full-length recombinant from yeast; also called SDCCAG3
T2 chain: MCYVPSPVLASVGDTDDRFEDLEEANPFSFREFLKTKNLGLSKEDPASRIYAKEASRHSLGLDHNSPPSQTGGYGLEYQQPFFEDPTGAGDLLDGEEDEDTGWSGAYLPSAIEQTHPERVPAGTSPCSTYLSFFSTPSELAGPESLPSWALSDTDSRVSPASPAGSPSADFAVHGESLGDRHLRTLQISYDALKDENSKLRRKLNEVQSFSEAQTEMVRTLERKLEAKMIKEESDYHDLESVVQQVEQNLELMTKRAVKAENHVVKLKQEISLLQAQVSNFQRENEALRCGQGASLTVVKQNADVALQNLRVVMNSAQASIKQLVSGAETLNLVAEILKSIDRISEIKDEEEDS

[3] = molecular target: T3, Jupiter microtubule associated homolog 2 (human, UniProt Q9H910 1-190); test: protein array
T3 construct: on protein array; also called HN1L
T3 sequence: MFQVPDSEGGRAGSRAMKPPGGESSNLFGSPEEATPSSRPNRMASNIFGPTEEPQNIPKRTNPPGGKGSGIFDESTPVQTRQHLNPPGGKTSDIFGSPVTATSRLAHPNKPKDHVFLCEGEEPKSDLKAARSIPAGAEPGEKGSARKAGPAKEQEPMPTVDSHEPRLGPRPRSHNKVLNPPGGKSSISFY

[4] = molecular target: T4, PNMA family member 5, transcript variant 2 (human, UniProt Q96PV4 1-448)
T4 construct: HuProt array protein, full-length recombinant from yeast; also called PNMA5
T4 sequence (Q96PV4 other isoform, or with tags, fused parts or gaps mutant limits assumed): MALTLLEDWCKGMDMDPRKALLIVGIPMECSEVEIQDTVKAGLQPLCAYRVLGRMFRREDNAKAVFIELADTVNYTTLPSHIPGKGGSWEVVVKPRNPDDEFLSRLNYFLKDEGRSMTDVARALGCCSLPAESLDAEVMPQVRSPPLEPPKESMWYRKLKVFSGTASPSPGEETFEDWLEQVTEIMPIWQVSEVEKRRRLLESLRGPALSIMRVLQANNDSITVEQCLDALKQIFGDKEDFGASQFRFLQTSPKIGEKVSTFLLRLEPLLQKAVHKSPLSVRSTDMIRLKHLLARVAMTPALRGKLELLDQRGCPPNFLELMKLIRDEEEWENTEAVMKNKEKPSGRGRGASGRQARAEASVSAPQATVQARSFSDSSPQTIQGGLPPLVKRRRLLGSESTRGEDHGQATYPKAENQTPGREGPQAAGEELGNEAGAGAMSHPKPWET

[5] = molecular target: T5, PNMA family member 5, transcript variant 2 (human, UniProt Q96PV4 1-448); test: protein array
T5 construct: on protein array; also called PNMA5
T5 sequence (Q96PV4 other isoform, or with tags, fused parts or gaps mutant limits assumed): as above

DEAD-box helicase 53 [6] = molecular target: T6, DEAD-box helicase 53 (human, UniProt Q86TM3 1-631); test: protein array
T6 construct: on protein array; also called DDX53
T6 sequence (Q86TM3 other isoform, or with tags, fused parts or gaps limits assumed): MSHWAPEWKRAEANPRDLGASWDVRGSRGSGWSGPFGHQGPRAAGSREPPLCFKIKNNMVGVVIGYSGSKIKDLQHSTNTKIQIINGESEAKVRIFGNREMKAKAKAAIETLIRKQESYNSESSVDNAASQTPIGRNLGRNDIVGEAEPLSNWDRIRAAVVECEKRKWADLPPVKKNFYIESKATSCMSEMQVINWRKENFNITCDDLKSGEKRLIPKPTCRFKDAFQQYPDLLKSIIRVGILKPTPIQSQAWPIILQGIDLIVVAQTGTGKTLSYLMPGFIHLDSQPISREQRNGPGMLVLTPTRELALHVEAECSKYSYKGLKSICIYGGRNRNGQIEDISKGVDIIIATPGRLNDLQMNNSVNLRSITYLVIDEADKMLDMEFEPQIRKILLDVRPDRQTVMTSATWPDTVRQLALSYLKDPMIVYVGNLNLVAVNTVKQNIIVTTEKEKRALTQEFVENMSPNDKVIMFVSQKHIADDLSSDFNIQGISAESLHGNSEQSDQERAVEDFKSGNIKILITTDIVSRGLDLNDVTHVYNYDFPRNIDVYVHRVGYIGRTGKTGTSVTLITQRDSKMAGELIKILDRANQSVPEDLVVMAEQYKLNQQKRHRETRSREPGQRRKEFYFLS

DEAD-box helicase 53 [7] = molecular target: T7, DEAD-box helicase 53 (human, UniProt Q86TM3 1-631)
T7 construct: also called DDX53
T7 sequence (Q86TM3 other isoform, or with tags, fused parts or gaps limits assumed): as above

[8] = molecular target: T8, kelch like ECH associated protein 1, transcript variant 1 (human, UniProt Q14145 1-624)
T8 construct: HuProt array protein, full-length recombinant from yeast; also called KEAP1
T8 sequence (Q14145 whole entry, change not shown): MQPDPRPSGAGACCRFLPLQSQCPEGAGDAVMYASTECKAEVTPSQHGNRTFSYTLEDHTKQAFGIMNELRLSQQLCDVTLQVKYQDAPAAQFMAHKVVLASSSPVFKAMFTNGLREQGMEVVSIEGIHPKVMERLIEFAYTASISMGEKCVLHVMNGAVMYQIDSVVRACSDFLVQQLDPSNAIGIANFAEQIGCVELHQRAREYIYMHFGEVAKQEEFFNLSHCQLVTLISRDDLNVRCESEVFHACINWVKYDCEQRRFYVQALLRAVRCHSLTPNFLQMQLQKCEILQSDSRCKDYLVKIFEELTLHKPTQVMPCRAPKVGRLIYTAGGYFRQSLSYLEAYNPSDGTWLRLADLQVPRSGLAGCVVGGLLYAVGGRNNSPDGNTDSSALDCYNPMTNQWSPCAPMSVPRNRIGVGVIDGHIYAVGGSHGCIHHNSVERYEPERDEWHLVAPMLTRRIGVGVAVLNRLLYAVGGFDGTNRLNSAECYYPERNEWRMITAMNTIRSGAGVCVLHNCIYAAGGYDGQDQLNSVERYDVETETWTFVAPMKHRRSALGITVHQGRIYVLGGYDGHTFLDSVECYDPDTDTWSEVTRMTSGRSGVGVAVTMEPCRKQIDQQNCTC

[9] = molecular target: T9, kelch like ECH associated protein 1, transcript variant 1 (human, UniProt Q14145 1-624); test: protein array
T9 construct: on protein array; also called KEAP1
T9 sequence (Q14145 whole entry, change not shown): as above

binding result [1]: binds
B1: TMES1001 (antibody, V domains shown)
VH: QVQLVQSGAEVKKPGASVKVSCKASGYTFTSYYMYWVRQAPGQGLEWMGIINPGGGSTSYAQKFQGRVTMTRDTSTSTVYMELSSLRSEDTAVYYCARVFRYGMDVWGQGTTVTVSS
VL: EIVMTQSPATLSVSPGERATLSCRASQSVSSNLAWYQQKPGQAPRLLIYGASTRATGLPARFSGSGSGTEFTLTISSLQSEDFAVYYCQSRGTFGGGTKVEIK
notes: VH/VL tied via antigen in summary, not by name in this stretch

binding result [2]: binds
B2: TMES1001 (antibody, V domains shown)
VH: QVQLVQSGAEVKKPGASVKVSCKASGYTFTSYYMYWVRQAPGQGLEWMGIINPGGGSTSYAQKFQGRVTMTRDTSTSTVYMELSSLRSEDTAVYYCARVFRYGMDVWGQGTTVTVSS
VL: EIVMTQSPATLSVSPGERATLSCRASQSVSSNLAWYQQKPGQAPRLLIYGASTRATGLPARFSGSGSGTEFTLTISSLQSEDFAVYYCQSRGTFGGGTKVEIK
notes: detected with anti-human IgG Fc

binding result [3]: binds
B3: TOVA1008 (antibody, V domains shown)
VH: ELQLVESGGGLVQPGGSLRLSCAASGFTFSSYWMSWVRQAPGKGLEWVANINQDGGEKYYVDSVKGRFTISRDNAKNSLYLQMNSLRAEDTAVYYCAHYYYDSSGYYQNAEYFQYWGQGTLVTVSS
VL: DIQMTQSPPSLSASVGDRVTITCQASQDISNYLNWYQQKPGKTPKLLIYAASTLETGVPSRFSGSGSGTDFTFTINSLQPEDIATYYCQQYDSLPLTFGGGTKVEIKR
notes: as for B1

binding result [3]: binds
B4: TTES1011 (antibody, V domains shown)
VH: PVTLRESGPALVKPTQTLTLTCTFSGFSLSTSGMCVSWIRQPPGKALEWLARIDWDDDKYYSTSLKTRLTISKDTSKNQVVLTMTNMDPVDTATYYCARMQIVATTQTYYYYYGMDVWGQGTTVTVSS
VL: PAVLTQPPSVSGAPGQRVTISCTGSSSNIGAGYDVHWYQQLPGTAPKLLIYGNSNRPSGVPDRFSGSKSGTSASLAITGLQAEDEADYYCQSYDSSLSGSGVFGGGTKLTVLG
notes: as for B1

binding result [4]: binds
B5: THNS1009 (antibody, V domains shown)
VH: QVQLQESGPGLVKPSETLSLTCTVSGGSISIYYWSWIRQPPGKGLEWIGYIYYSGSTNYNPSLKSRVTISVDTSKNQFSLKLRSVTAADTAVYYCARDTYGDPRGDYFDYWGQGTLVTVSS
VL: DIQMTQSPSTLSASVGDRVTITCRASQRISNWLAWYQQTPGKAPKLLIYKASSLESGVPSRFSGSGSGTEFTLTISSLQPDDFATYYCQQYSSSSPRTFGQGTKVEIKR
notes: as for B2

binding result [5]: binds
B6: THNS1009 (antibody, V domains shown)
VH: QVQLQESGPGLVKPSETLSLTCTVSGGSISIYYWSWIRQPPGKGLEWIGYIYYSGSTNYNPSLKSRVTISVDTSKNQFSLKLRSVTAADTAVYYCARDTYGDPRGDYFDYWGQGTLVTVSS
VL: DIQMTQSPSTLSASVGDRVTITCRASQRISNWLAWYQQTPGKAPKLLIYKASSLESGVPSRFSGSGSGTEFTLTISSLQPDDFATYYCQQYSSSSPRTFGQGTKVEIKR
notes: VH/VL only

binding result (DEAD-box helicase 53 [6]): binds
B7: TOVA1001 (antibody, V domains shown)
VH: HVQLVQSGSELKKPGASVKLSCKASGYTFTNYAMNWVRQAPGQGLEWMGWINTNTGNPTYAQGFTGRFVFSLDTSVSTAYLQISSLKAEDTALYYCARDRPGDYWGQGTLVTVSS
VL: not shown
notes: as for B1

binding result (DEAD-box helicase 53 [7]): binds
B8: TOVA1001 (antibody, V domains shown)
VH: HVQLVQSGSELKKPGASVKLSCKASGYTFTNYAMNWVRQAPGQGLEWMGWINTNTGNPTYAQGFTGRFVFSLDTSVSTAYLQISSLKAEDTALYYCARDRPGDYWGQGTLVTVSS
VL: not shown

binding result [8]: binds
B9: TBRE1052 (antibody, V domains shown)
VH: PVQLIQSGAEVRKPGASVKVSCKVSGYTLSELSLHWVRQAPGKGLEWMGTFDPEDGETVYAQKFQGRVTVTEDTSTDTAYIDLSSLKSEDTAVYYCATDGPLHTSGLDYWGQGTLVTVSS
VL: EIVLTQSPATLSLSPGERATLSCRASQSISSNLAWYQQKPGQAPRLLIYDASNRATGIPARFSGSGSGTDFTLTISSLEPEDFAVYYCQQHSNWPELTFGGGTKVEIKR
notes: as for B2

binding result [9]: binds
B10: TBRE1052 (antibody, V domains shown)
VH: PVQLIQSGAEVRKPGASVKVSCKVSGYTLSELSLHWVRQAPGKGLEWMGTFDPEDGETVYAQKFQGRVTVTEDTSTDTAYIDLSSLKSEDTAVYYCATDGPLHTSGLDYWGQGTLVTVSS
VL: EIVLTQSPATLSLSPGERATLSCRASQSISSNLAWYQQKPGQAPRLLIYDASNRATGIPARFSGSGSGTDFTLTISSLEPEDFAVYYCQQHSNWPELTFGGGTKVEIKR
notes: VH/VL only

binding result [8]: binds
B11: TCOL1007 (antibody, V domains shown)
VH: PVQLVESGGGVVQPGRSLRLSCAASGFTFSNYGMHWVRQAPGKGLEWVAVISDDGNDKDNADSVKGRFTISRDNSKNTLYLRMNSLRREDTAVYYCARDGFDYWGQGTLVTVSS
VL: DIVMTQTPLSMPVTPGEPASISCRSSQSLLDSDDGKTYLDWYLQKPGQSPQLLIYTVSYRASGVPDRFSGSGSGTDFTLKISRVEAEDVGVYYCMQRIEFPFTFGPGTKVDIKR
notes: as for B2

binding result [1]: binds
B12: TMEL1025 (antibody, V domains shown)
VH: EVQLMESGGGLVQPGGSLRLSCAASGLTFSIYSMNWVRQAPGKGLEWVSYISRGSSVIYHADSVKGRFTISRDDGKNLLYLQMNSLRDDDTAMYYCSSGGSTSMVGRYWGQGSLVTVSS
VL: DVVMTQSPLYLPVTLGQPASISCRASQSLVYSDGNTYLNWVHQRPGQSPRRLIYMVSQRGSGVPDRFSGSGSDTDFTLKISRVEAEDVGVYYCMQGTHWSAFGQGTKLEIKR
notes: as for B1

binding result [2]: binds
B13: TMEL1025 (antibody, V domains shown)
VH: EVQLMESGGGLVQPGGSLRLSCAASGLTFSIYSMNWVRQAPGKGLEWVSYISRGSSVIYHADSVKGRFTISRDDGKNLLYLQMNSLRDDDTAMYYCSSGGSTSMVGRYWGQGSLVTVSS
VL: DVVMTQSPLYLPVTLGQPASISCRASQSLVYSDGNTYLNWVHQRPGQSPRRLIYMVSQRGSGVPDRFSGSGSDTDFTLKISRVEAEDVGVYYCMQGTHWSAFGQGTKLEIKR
notes: as for B2

binding result [5]: binds
B14: TBRE1011 (antibody, V domains shown)
VH: PVLLQESGPGLVKPSETLSLTCTVSGDSMSFYYWTWIRQPPGKGLEWIGYIYYSGNRNYNPSLNSRVTISVDTSKNEVSLKLTSVTAADTAAYYCARGRGEMDVWGQGTTVTVSS
VL: QSVLTQPPSASGTPGQGVTISCSGTSANIGKNYVSWYQHLPGTAPRLLIYRIDQRPSGVPDRFSGSKSGTSASLAISGLRPEDEADYYCAAWDDSLSGPVFGGGTKLTVLG
notes: VH/VL only

binding result [4]: binds
B15: TBRE1011 (antibody, V domains shown)
VH: PVLLQESGPGLVKPSETLSLTCTVSGDSMSFYYWTWIRQPPGKGLEWIGYIYYSGNRNYNPSLNSRVTISVDTSKNEVSLKLTSVTAADTAAYYCARGRGEMDVWGQGTTVTVSS
VL: QSVLTQPPSASGTPGQGVTISCSGTSANIGKNYVSWYQHLPGTAPRLLIYRIDQRPSGVPDRFSGSKSGTSASLAISGLRPEDEADYYCAAWDDSLSGPVFGGGTKLTVLG
notes: as for B2

binding result (DEAD-box helicase 53 [6]): binds
B16: TSAR1004 (antibody, V domains shown)
VH: QVQLQESGPGLVKPSETLSLTCSVSGDSFSDYYWSWTRQSPGKGLEWLGYMFYGGSTNYNPSLKSRLTMSVDTSKKHVYLKLSSVTAADTAVYYCAASGYGDHVAYWGQGTLVTVSS
VL: DIVMTQSPDSLAVSLGERATLNCKSSQSVLSSYNNKDYLAWFQQKPGQPPQLLFYWASTRKTGVPDRFSGSGSGTDFTLTISSLQTEDVAVYYCQQYYSTPYTFGQGTKLEIK
notes: as for B1

binding result (DEAD-box helicase 53 [7]): binds
B17: TSAR1004 (antibody, V domains shown)
VH: QVQLQESGPGLVKPSETLSLTCSVSGDSFSDYYWSWTRQSPGKGLEWLGYMFYGGSTNYNPSLKSRLTMSVDTSKKHVYLKLSSVTAADTAVYYCAASGYGDHVAYWGQGTLVTVSS
VL: DIVMTQSPDSLAVSLGERATLNCKSSQSVLSSYNNKDYLAWFQQKPGQPPQLLFYWASTRKTGVPDRFSGSGSGTDFTLTISSLQTEDVAVYYCQQYYSTPYTFGQGTKLEIK

binding result [8]: binds
B18: THNS1008 (antibody, V domains shown)
VH: QVQLQESGPGLVKPSQTLSLTCAVSGGSISSGGYPWSWIRQPPGKGLEWIGYISYSGSTDYNPSLKSRVTISLDTSSNQFSLNLSSLTAADTAVYYCARGAAFYYGMDVWGQGTTVTVSS
VL: DIQMTQSPSSLSASVGDRVTITCRASQSISTYLNWYQQKPGKAPKLLIYVASSLQSGVPSRFSGSGSGTDFTLTISGLQPEDFATYYCQQSYSTPYTFGQGTKLEIKR
notes: detected with anti-human IgG Fc; also called THINS1008
